{"source": "patent US10787640B2", "about": "“Producing mesodermal cell types and methods of using the same” (The Board of Trustees of the Leland Stanford Junior …, priority 2015, dated 2020)", "molecules": {"B1": {"name": "BMP4: BMP family ligand, BMP agonist (protein, UniProt P12644 293-408, looked up)", "Bone morphogenetic protein 4": "SPKHHSQRARKKNKNCRRHSLYVDFSDVGWNDWIVAPPGYQAFYCHGDCPFPLADHLNSTNHAIVQTLVNSVNSSIPKACCVPTELSAISMLYLDEYDKVVLKNYQEMVVEGCGCR"}, "B2": {"name": "Activin: TGFβ agonist (protein, UniProt P08476 311-426, looked up)", "Inhibin beta A chain": "GLECDGKVNICCKKQFFVSFKDIGWNDWIIAPSGYHANYCEGECPSHIAGTSGSSLSFHSTVINHYRMRGHSPFANLKSCCVPTKLRPMSMLYYDDGQNIIKKDIQNMIVEECGCS", "modifications": "Inhibin beta A chain", "notes": "TGFβ agonist"}}, "key": {"hESCs": {"system": "hESCs", "experiment": "Primitive streak (PS) induction from hESCs, qPCR", "format": "cell-based, human", "method": "As aforementioned, after overnight plating, hPSCs were briefly washed (with DMEM/F12) and then differentiated into either anterior primitive streak (30 ng/mL Activin A+4 μM CHIR99021+20 ng/mL FGF2+100 nM PIK90; for subsequent paraxial mesoderm induction) or mid primitive streak ([…] Activin A+40 ng/mL BMP4+6 μM CHIR99021+20 ng/mL FGF2+100 nM PIK90; for subsequent cardiac mesoderm induction) for 24 hrs.\nTotal cDNA was diluted 1:10-1:30 in H2O and qPCR was performed with the SensiFAST SYBR Lo-ROX Kit (Bioline) with 10 μL qPCR reactions per well in a 384-well plate: 5.0 μL 2× qPCR Master Mix+4.6 μL cDNA (totaling ˜120 ng of cDNA)+0.4 μL of 10 μM primer stock (5 μM forward+5 μM reverse primers). In general, gene-specific primer pairs were tested for (1) specificity of amplicon amplification (only one peak on a dissociation curve) and (2) linearity of amplicon amplification (linear detection of gene expression in cDNA samples serially diluted seven times over two orders of magnitude, with 90-110% efficiency of amplification deemed acceptably linear). After qPCR plates were prepared by arraying sample-specific cDNAs and gene-specific primers, they were sealed and briefly centrifuged (5 mins). 384-well qPCR plates and their adhesive sealing sheets were obtained from Thermo (AB1384 and AB0558, respectively). qPCR plates were run on a 7900HT Fast Real-Time PCR System (Applied Biosystems) with the following cycling parameters: initial dissociation (95° C., 2 mins) followed by 40 cycles of amplification and SYBR signal detection (95° C. dissociation, 5 seconds; 60° C. annealing, 10 seconds; followed by 72° C. extension, 30 seconds), with a final series of steps to generate a dissociation curve at the end of each qPCR run. During qPCR data analysis, the fluorescence threshold to determine Ct values was set at the linear phase of amplification; other qPCR data analysis methods including qPCR heatmap generation using the GenePattern platform (Broad Institute) were described previously by Loh et al., 2014, the disclosure of which is incorporated herein by reference in its entirety.\nE) To assess whether inducing PS in the presence of TGFβ signaling altered its downstream potential to form different kinds of mesoderm, (i) H7 hESCs were differentiated into PS with CHIR99021+FGF2+PIK90 (CFK) for 24 hours in the presence or absence of increasing amounts of Activin (10-100 ng/mL), and then were transferred into paraxial mesoderm induction conditions (A-83-01+CHIR99021+DM3189+FGF2) for 24 hrs, and qPCR was conducted or (ii) H7 hESCs were differentiated into PS with BMP4 (10 ng/mL)+CHIR99021+FGF2+PIK90 (B10CFK) for 24 hours in the presence or absence of increasing amounts of Activin (10-100 ng/mL), and then were transferred into lateral/cardiac mesoderm inductions (A-83-01+BMP4+C59) for 24 hours and qPCR was conducted. […] F) To assess whether inducing PS in the presence of BMP signaling altered its downstream potential to form different kinds of mesoderm, H7 hESCs were differentiated into PS with Activin (10 ng/mL)+CHIR99021+FGF2+PIK90 (A10CFK) for 24 hours in the presence of absence of increasing amounts of BMP4 (1-40 ng/mL), and then were (i) transferred into paraxial mesoderm induction conditions (A-83-01+CHIR99021+DM3189+FGF2) for 24 hrs, and qPCR was conducted or were (ii) transferred into lateral/cardiac mesoderm inductions (A-83-01+BMP4+C59) for 24 hours and qPCR was conducted. […] G) H7 hESCs were differentiated into anterior primitive streak (30 ng/mL Activin+4 μM CHIR99021+20 ng/mL FGF2+100 nM PIK90) in the presence or absence of BMP4 (10 ng/mL) for 24 hours, and then transferred into paraxial mesoderm induction conditions for 24 hours before TBX6 immunostaining was conducted. […]"}, "[1]": {"system": "hESC-derived cardiac mesoderm", "experiment": "Cardiac mesoderm differentiation into cardiovascular fates, qPCR", "format": "cell-based, human", "method": "Day 2 lateral mesoderm was differentiated into day 4 cardiac mesoderm by treating them with 1 μM A8301+30 ng/mL BMP4+1 μM C59+20 ng/mL FGF2 for 48 hrs, or alternatively, with 1 μM A8301+30 ng/mL BMP4+20 ng/mL FGF2 for 24 hrs followed by 25 ng/mL Activin+30 ng/mL BMP4+1 μM C59 for the next 24 hrs (schema in FIG. 5E; positive effect of mid-stage Activin shown in FIG. 12K). Subsequently, day 4 cardiac mesoderm was briefly washed (DMEM/F12) and treated with 30 ng/mL BMP4+1 μM XAV939+200 μg/mL 2-phospho-ascorbic acid (Sigma) for 48-96 hrs to yield day 6-8 cardiomyocyte-containing populations. Spontaneously contracting cardiomyocyte foci were evident from day 8 onwards.\nC) To reveal the possible identity of non-cardiac mesoderm lineages that were contaminating cardiac mesoderm-containing cultures, NKX2.5-GFP hESCs were differentiated towards mid primitive streak (day 1) and were differentiated towards a heterogeneous population containing cardiac mesoderm (day 3) by treatment with SB-505124+BMP4+C59 (without FGF2) on days 2-3 of differentiation. FACS was performed on day 3 to purify either NKX2.5-GFP^+ or NKX2.5-GFP^− cells (top subpanels) which were sorted for qPCR (bottom subpanels). Gene expression was normalized to expression of a gene in the NKX2.5-GFP^+ fraction (dotted line). D) Timecourse of gene expression in hESCs differentiating towards mid primitive streak and lateral mesoderm, with treatment by SB-505124+BMP4+C59 on days 2-3 of differentiation. […] G) To assess whether a stabilized vitamin C analog (ascorbic acid-2-phosphate) (AA2P) enhanced cardiac mesoderm differentiation into cardiomyocytes, day 4 hESC-derived cardiac mesoderm was exposed to BMP4 (30 ng/mL)+XAV939 (1 μM) for 48 hours in the presence or absence of 200 μg/mL AA2P and qPCR was conducted of day 6 populations; qPCR data were normalized such that expression values in the highest-expressing sample was normalized=1.0. […] J) In the mouse embryo, endocardium (progenitors to heart-affiliated endothelium) are marked by transient coexpression of pan-heart marker Nkx2.5 together with endothelial markers (Ferdous et al., 2009; Stanley et al., 2002)."}}}
{"molecule": "Cc1cnc(-c2cnc(NCCNc3ccc(C#N)cn3)nc2-c2ccc(Cl)cc2Cl)[nH]1", "note": "[CHIR99021, 6-[[2-[[4-(2,4-Dichlorophenyl)-5-(5-methyl-1H-imidazol-2-yl)-2-pyrimidinyl]amino]ethyl]amino]-3-pyridinecarbonitrile]", "values": [{"measurement": "PS marker expression (qPCR)", "setting": "hESCs; 24 hours in A3B3F20, 300 ng/mL WNT3A or 0.5-8 μM CHIR99021", "result": "broadly induces both anterior (TBX6) and mid/posterior (FOXF1, MESP1) PS markers"}, {"measurement": "differentiation into cardiomyocytes (qPCR day 6)", "setting": "[1]; BMP4 30 ng/mL with CHIR99021 3 μM, 48 hours", "result": "fully blocked cardiac mesoderm differentiation into cardiomyocytes"}]}
{"molecule": "Cc1cccc(-c2[nH]c(C(C)(C)C)nc2-c2ccc3c(c2)OCO3)n1", "note": "[SB-505124, 2-[4-(1,3-Benzodioxol-5-yl)-2-(1,1-dimethylethyl)-1H-imidazol-5-yl]-6-methyl-pyridine]", "values": [{"measurement": "PS differentiation", "setting": "hESCs; CHIR99021+20 ng/mL FGF2+100 nM PIK90 with 2 μM SB-505124 or 1 μM A-83-01", "result": "strongly impairs PS differentiation"}]}
{"molecule": "B1", "values": [{"measurement": "PS formation and anterior-posterior patterning", "setting": "hESCs; ACFK with LDN193189 250 nM or BMP4 3-100 ng/mL", "result": "induced posterior PS"}, {"measurement": "cardiovascular fate commitment (TNNT2, MYH6, MYH7)", "setting": "[1]; XAV939 1 μM with BMP4 5-30 ng/mL, 48 hours", "result": "preferentially promotes commitment to cardiomyocyte fate"}, {"measurement": "cardiomyocyte and endothelial gene expression", "setting": "[1]; day 4 cardiac mesoderm, BMP4 30 ng/mL, 48 hours", "result": "upregulation of both cardiomyocyte (myocardium) and endothelial (presumptive endocardium) genes"}]}
{"molecule": "B2", "values": [{"measurement": "subsequent cardiomyocyte differentiation", "setting": "[1]; day 3 cardiac mesoderm, BMP4+C59+FGF2 with Activin 25 ng/mL, 24 hours", "result": "enhanced subsequent cardiomyocyte differentiation"}]}
